Test results: US6511816B1, “DNA gyrase-inhibiting proteins” (priority 1996, dated 2003)

Assays:
[1] = biological target: Escherichia coli DNA gyrase (subunit A and subunit B) (Escherichia coli) (UniProt P0AES4); assay: cell-based or functional assay
E. coli GI724 strain = assay: Growth of antisense RNA-expressing strain with tryptophan induction; format: cell-based, Escherichia coli; settings: for turbidity OD600 / number of living cells: tryptophan added
Description: An antisense expression vector was prepared by inserting a fragment containing the translation region of dgi gene (a fragment corresponding to the 255th-728th bases of Sequence ID NO:6) into the downstream of tryptophan (trp) promoter of vector plasmid pLEX (available from Invitrogen Co.).
The vector was introduced into E. coli GI724 strain. The antisense RNA-expressing strain thus obtained was cultured under the condition of with or without adding tryptophan, and the change with the lapse of time in the number of living cells and turbidity (OD600) was measured. When expression induction by adding tryptophan was not carried out, the number of living cells and turbidity after 24 hours were increased up to 1×10^9 cfu/ml and 1.0, respectively. […] It has been reported that such abnormality in morphology was also observed when E. coli was treated with a new quinolone gyrase inhibitor (Takeshi Nishino et al., Chemotherapy, vol. 41(s-5), pp. 50-66, 1993). From the above result, it is considered that in E. coli wherein expression of dgi antisense RNA is induced, expression of dgi gene is repressed and the normal growth of bacteria is inhibited. In other words, a medical agent which inhibits the expression of dgi gene is useful as an antimicrobial agent.

[2] = biological target: Escherichia coli DNA gyrase (subunit A and subunit B) (Escherichia coli, UniProt P0AES4+P0AES6)
Description: Using the purified DGI obtained in Example 4 above, DGI activity, i.e. the inhibiting activity against DNA gyrase activity (supercoiling activity), was measured. Each 5 μl of DNA gyrase subunit A (1U) and subunit B (1U) were each added to a reaction mixture for activity measurement (20 mM Tris-HCl (pH7.5), 20 mM KCl, 4 mM MgCl2, 4 mM spermidine, 1.5 mM ATP, 1 mM DTT, 30 μg/ml t-RNA, 15 μg/ml BSA and 0.1 μg relaxed pBR322 DNA), and DGI (protein concentration 25, 12.5, 6.25, 3.13, 1.56, 0.78 or 0.39 μg/ml) was added thereto for the reaction for 1 hour at 37° C. After stopping the reaction by addition of 3 μl of proteinase K (1 mg/ml) while keeping the temperature at 37° C. for 30 minutes, the reaction mixture was subjected to electrophoresis with 0.8% agarose gel, dyed with a 0.5 μg/ml solution of ethidium bromide and photographed under radiation of the ultraviolet rays. The amount of super-coiled DNA was measured with a densitometer (Shimadzu-wavelength flying spot scanner CS-9000, available from Shimadzu Seisakusho Co.). The presence or absence of DNA gyrase-inhibiting activity was assayed by comparing the supercoiled DNA amounts obtained when DGI protein was added, with those obtained when no DGI protein was added.
0.5 μg of pBR322 DNA (the supercoiled type, available from Takara Shuzo Co.) and 1 μl of topoisomerase I (available from Takara Shuzo Co.)(6 U/μl) were added to 20 μl of a reaction liquid (35 mM Tris-HCl (pH 8.0), 72 mM KCl, 5 mM MgCl2, 5 mM DTT, 5 mM spermidine and 0.01% bovine serum albumin) and reacted for 2 hours at 37° C. to prepare relaxed pBR322 DNA. […] As for the enzyme activity, the enzyme amount necessary to convert 50% of the amount of the relaxed plasmid DNA into the supercoiled DNA was expressed as one unit (U).

[3] = tested on: E. coli GI724 (pCA17) strain; assay: Microscopic observation of strains expressing a large amount of DGI; format: cell-based, Escherichia coli; settings: tryptophan-induced expression from pCA17

Sequence of Escherichia coli DNA gyrase (subunit A and subunit B) (P0AES4 whole entry, one chain of several): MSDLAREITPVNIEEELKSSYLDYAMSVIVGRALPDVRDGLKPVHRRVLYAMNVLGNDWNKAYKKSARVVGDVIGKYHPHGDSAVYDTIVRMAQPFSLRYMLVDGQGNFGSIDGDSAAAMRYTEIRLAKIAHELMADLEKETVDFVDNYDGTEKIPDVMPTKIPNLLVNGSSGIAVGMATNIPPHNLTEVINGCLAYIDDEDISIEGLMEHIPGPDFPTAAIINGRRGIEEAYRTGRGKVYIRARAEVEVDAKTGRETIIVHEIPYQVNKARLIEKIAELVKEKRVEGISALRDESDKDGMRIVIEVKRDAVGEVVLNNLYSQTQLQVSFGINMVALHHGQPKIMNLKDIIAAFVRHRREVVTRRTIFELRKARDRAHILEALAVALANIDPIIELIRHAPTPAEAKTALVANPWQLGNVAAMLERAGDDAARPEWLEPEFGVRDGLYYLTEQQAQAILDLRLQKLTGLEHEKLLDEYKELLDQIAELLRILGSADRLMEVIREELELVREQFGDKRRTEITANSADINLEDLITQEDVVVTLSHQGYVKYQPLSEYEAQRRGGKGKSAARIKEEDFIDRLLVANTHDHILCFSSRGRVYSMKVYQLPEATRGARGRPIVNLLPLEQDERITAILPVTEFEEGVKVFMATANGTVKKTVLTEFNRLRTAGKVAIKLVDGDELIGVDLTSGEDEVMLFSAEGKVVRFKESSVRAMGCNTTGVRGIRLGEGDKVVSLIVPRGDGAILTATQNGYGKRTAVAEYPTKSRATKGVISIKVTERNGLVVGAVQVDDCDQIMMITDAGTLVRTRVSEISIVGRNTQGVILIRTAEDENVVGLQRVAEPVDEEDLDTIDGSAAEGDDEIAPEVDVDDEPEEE
Sequence of Escherichia coli DNA gyrase (subunit A and subunit B) (Escherichia coli) (P0AES4 2-875 limits assumed): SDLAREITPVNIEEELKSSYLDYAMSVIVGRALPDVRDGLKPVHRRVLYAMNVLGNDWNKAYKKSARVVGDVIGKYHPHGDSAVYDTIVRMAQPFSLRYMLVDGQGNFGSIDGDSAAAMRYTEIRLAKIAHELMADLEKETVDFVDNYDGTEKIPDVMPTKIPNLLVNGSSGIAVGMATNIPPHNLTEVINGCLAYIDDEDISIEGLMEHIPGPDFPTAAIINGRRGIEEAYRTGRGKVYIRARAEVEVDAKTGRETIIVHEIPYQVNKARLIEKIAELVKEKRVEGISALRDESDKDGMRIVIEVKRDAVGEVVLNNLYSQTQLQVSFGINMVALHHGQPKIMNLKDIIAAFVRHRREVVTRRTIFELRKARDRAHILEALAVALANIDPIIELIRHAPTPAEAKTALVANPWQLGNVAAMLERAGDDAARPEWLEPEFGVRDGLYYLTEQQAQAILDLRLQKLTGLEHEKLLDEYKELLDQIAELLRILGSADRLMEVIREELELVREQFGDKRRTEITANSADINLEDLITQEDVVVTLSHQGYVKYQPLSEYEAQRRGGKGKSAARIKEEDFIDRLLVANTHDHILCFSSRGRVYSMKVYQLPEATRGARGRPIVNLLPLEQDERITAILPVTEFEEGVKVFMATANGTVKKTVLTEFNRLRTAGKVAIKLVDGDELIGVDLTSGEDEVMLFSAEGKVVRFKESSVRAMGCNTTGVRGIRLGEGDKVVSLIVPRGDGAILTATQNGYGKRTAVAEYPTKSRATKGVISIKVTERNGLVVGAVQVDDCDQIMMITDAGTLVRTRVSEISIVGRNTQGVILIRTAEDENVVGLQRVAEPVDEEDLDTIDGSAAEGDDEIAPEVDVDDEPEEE

DNA gyrase-inhibiting protein (DGI) derived from Escherichia coli (from UniProt B2TYH1 1-157)
supercoiling activity of DNA gyrase (relaxed pBR322 DNA, agarose gel) [1]: 8 µg/ml | supercoiling activity of DNA gyrase (relaxed pBR322 DNA, agarose gel, densitometry) [1]: > 6 µg/ml

B1: dgi gene antisense RNA: antisense RNA expressed from pLEX carrying the dgi fragment (255th-728th bases of Sequence ID NO:6) (nucleic acid)
antisense: ATGAACTACGAGATTAAGCAGGAAGAGAAACGTACCGTTGCAGGTTTCCATCTCGTTGGCCCGTGGGAACAGACGGTAAAGAAAGGCTTTGAGCAGTTGATGATGTGGGTAGATAGCAAAAATATTGTGCCGAAGGAGTGGGTTGCTGTCTATTACGACAATCCAGATGAAACACCCGCCGAAAAATTACGCTGCGACACCGTCGTGACGGTGCCGGGTTACTTTACGCTTCCCGAAAACAGTGAGGGCGTCATTCTGACAGAAATTACAGGTGGTCAGTATGCGGTGGCGGTAGCTCGTGTAGTCGGTGATGATTTTGCTAAACCCTGGTATCAGTTCTTTAATAGTCTCTTGCAGGACAGTGCTTATGAAATGTTACCAAAGCCCTGCTTCGAGGTTTATTTGAACAATGGCGCGGAAGATGGGTACTGGGATATCGAAATGTATGTTGCGGTGCAGCCAAAACATCACTAA
modifications: antisense orientation RNA; Escherichia coli strain KL16
morphology of bacteria (E. coli GI724 strain; antisense RNA-expressing strain): elongation of the bacteria was observed | turbidity OD600 (E. coli GI724 strain; 8 hours after the addition): 0.4 | number of living cells (E. coli GI724 strain; 8 hours after the addition (from 4×10^7 cfu/ml)): 1×10^8 cfu/ml | number of living cells (E. coli GI724 strain; after 24 hours): 5×10^6 cfu/ml | turbidity OD600 (E. coli GI724 strain; after 24 hours): ~0.5

B2: DGI: about 18 kDa Escherichia coli protein inhibiting DNA gyrase supercoiling activity, Sequence ID NO:7 (protein)
chain: MNYEIKQEEKRTVAGFHLVGPWEQTVKKGFEQLMMWVDSKNIVPKEWVAVYYDNPDETPAEKLRCDTVVTVPGYFTLPENSEGVILTEITGGQYAVAVARVVGDDFAKPWYQFFNSLLQDSAYEMLPKPCFEVYLNNGAEDGYWDIEMYVAVQPKHH
modifications: Escherichia coli strain KL16
concentration perfectly inhibiting the supercoiling activity of DNA gyrase ([2]; purified DGI isolated from Fraction No. 32 by Sephadex G-75, relaxed pBR322 DNA, subunit A 1 U, subunit B 1 U): 8 µg/mL | concentration completely inhibiting the supercoiling activity of DNA gyrase ([2]; recombinant purified DGI of Example 4, 1 hour at 37° C., tested 25 to 0.39 μg/ml): ≥ 6 µg/mL | conversion to supercoiled DNA at concentration lower than 6 μg/ml ([2]; recombinant purified DGI of Example 4, below 6 μg/ml): ended in an incomplete state | morphology of strains expressing a large amount of DGI [3]: lank and elongated
